Data as given in publication PMC9563714.

Target: T1, Vfr (Pseudomonas aeruginosa UCBPP-PA14) (UniProt P55222)
T1 sequence: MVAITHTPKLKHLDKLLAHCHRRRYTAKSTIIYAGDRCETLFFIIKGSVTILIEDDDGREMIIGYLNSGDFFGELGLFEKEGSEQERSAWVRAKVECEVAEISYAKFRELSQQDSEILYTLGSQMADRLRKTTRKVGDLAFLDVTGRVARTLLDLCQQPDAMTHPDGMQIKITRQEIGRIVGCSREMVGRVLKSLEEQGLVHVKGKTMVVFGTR
Experiment: EMSA

With “TCTGACCCATCCGCGCGACTGGCCCCCGGGCCGGTCGCTCCCCCGGGACGACCGTCGGTCCCGGATCGGCGCGCTTTCCTGAACTATCGATCAGCTGTCACTGGCCGCCGCGCAAACGCTTGGTTAAGATTCCGCCAGCAACCTGGCCACCCGCCATTCCCCAGGCGGAAAGCTCACGAGGCCGAGCCGGGACGAAAATACACAGGGATCCTCTCCAGCGCATG (double strand) [PcyaB]” the binding was “no binding”.
